Reference: patent publication US9994886B2, “Modified Epstein-Barr virus DNA polymerase and methods for isothermal DNA amplification” (priority 2013, dated 2018)
Numbering of substitutions follows the chain as printed. Names and notes keep the numbering of the source.

What was measured:
GST-BMRF1(1-303) = target: T1, GST-BMRF1(1-303) (Epstein-Barr virus, UniProt P03191); assay: Binding of radiolabeled BALF5-deletion polypeptides to GST-BMRF1(1-303); details: 100 mM ammonium sulfate; [35S]-methionine labeled in vitro translated polypeptides
T1 construct: A GST fusion with BMRF1 residues 1-303 was constructed and expressed in E. coli BL21*DE3; made in house; host or cells: E. coli BL21*DE3
T1 sequence (P03191 1-303): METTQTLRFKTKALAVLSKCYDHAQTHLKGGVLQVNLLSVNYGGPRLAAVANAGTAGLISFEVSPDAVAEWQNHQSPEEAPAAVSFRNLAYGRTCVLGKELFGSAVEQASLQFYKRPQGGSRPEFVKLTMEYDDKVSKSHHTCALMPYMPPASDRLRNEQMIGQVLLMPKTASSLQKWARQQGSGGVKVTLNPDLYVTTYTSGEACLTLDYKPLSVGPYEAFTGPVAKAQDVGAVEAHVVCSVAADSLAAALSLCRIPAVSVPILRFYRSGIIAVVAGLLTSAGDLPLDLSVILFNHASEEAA
Procedure: To determine if the extreme carboxyl terminus of the EBV BALF5 subunit is necessary for functional interaction with BMRF1, a series of deletions of the BALF5 open reading frame was constructed in the pYES-X2 vector and [^35S]-methionine labeled polypeptides were expressed by in vitro transcription-translation as described (Kiehl, A. and D. I. Dorsky, J Virol, 1995, 69(3): p. 1669-77). These radiolabeled BALF5-deletion polypeptides were then assayed for binding to GST-BMRF1(1-303) in 100 mM ammonium sulfate. In vitro translated BALF5 bound to GST-BMRF1(1-303) but not to GST alone.

[1] = DNA polymerase activity in vitro of BALF5 deletion polypeptides; assay type: biochemical; details: with or without BMRF1, high and low ionic strength
[2] = test system: activated calf thymus (CT) DNA; assay: DNA polymerase elongation activity of purified BALF5 on activated calf thymus DNA; assay type: biochemical; details: BMRF1 at concentrations required for stimulation at high-salt
Procedure: When assayed in the presence of BMRF1, its activity on CT DNA at 100 mM ammonium sulfate was greater than 100-fold increased over its activity alone, in the absence of salt.

[3] = monomeric form of BMRF1; cited from earlier work

B1: ΔC903: BALF5 with deletion of the carboxyl-terminal 112 residues (protein)
chain: MASASLTMSGGLFYNPFLRPNKGLLKKPDKEYLRLIPKCFQTPGAAGVVDVRGPQPPLCFYQDSLTVVGGDEDGKGMWWRQRAQEGTARPEADTHGSPLDFHVYDILETVYTHEKCAVIPSDKQGYVVPCGIVIKLLGRRKADGASVCVNVFGQQAYFYASAPQGLDVEFAVLSALKASTFDRRTPCRVSVEKVTRRSIMGYGNHAGDYHKITLSHPNSVCHVATWLQDKHGCRIFEANVDATRRFVLDNDFVTFGWYSCRRAIPRLQHRDSYAELEYDCEVGDLSVRREDSSWPSYQALAFDIECLGEEGFPTATNEADLILQISCVLWSTGEEAGRYRRILLTLGTCEDIEGVEVYEFPSELDMLYAFFQLIRDLSVEIVTGYNVANFDWPYILDRARHIYSINPASLGKIRAGGVCEVRRPHDAGKGFLRANTKVRITGLIPIDMYAVCRDKLSLSDYKLDTVARHLLGAKKEDVHYKEIPRLFAAGPEGRRRLGMYCVQDSALVMDLLNHFVIHVEVAEIAKIAHIPCRRVLDDGQQIRVFSCLLAAAQKENFILPMPSASDRDGYQGATVIQPLSGFYNSPVLVVDFASLYPSIIQAHNLCYSTMITPGEEHRLAGLRPGEDYESFRLTGGVYHFVKKHVHESFLASLLTSWLAKRKAIKKLLAACEDPRQRTILDKQQLAIKCTCNAVYGFTGVANGLFPCLSIAETVTLQGRTMLERAKAFVEALSPANLQALAPSPDAWAPLNPEGQLRVIYGDTDSLFIECRGFSESETLRFADALAAHTTRSLFVAPISLEAEKTFSCLMLITKKRYVGVLTDGKTLMKGVELVRKTACKFVQTRCRRVLDLVLADARVKEAASLLSHRPFQESFTQGLPVGFLPVIDILNQAYTDLREGRVPMGELCFS
In the case of B1, the “binding to GST-BMRF1(1-303)” value (GST-BMRF1(1-303)) is reported as “binding was preserved” and the “DNA polymerase activity in vitro” value [1] is reported as “wild-type DNA polymerase activity”.

B2: WT (1-404): full-length 50-kDa BMRF1 processivity factor subunit of EBV DNA polymerase, SEQ ID NO. 9 (protein)
chain: METTQTLRFKTKALAVLSKCYDHAQTHLKGGVLQVNLLSVNYGGPRLAAVANAGTAGLISFEVSPDAVAEWQNHQSPEEAPAAVSFRNLAYGRTCVLGKELFGSAVEQASLQFYKRPQGGSRPEFVKLTMEYDDKVSKSHHTCALMPYMPPASDRLRNEQMIGQVLLMPKTASSLQKWARQQGSGGVKVTLNPDLYVTTYTSGEACLTLDYKPLSVGPYEAFTGPVAKAQDVGAVEAHVVCSVAADSLAAALSLCRIPAVSVPILRFYRSGIIAVVAGLLTSAGDLPLDLSVILFNHASEEAAASTASEPEDKSPRVQPLGTGLQQRPRHTVSPSPSPPPPPRTPTWESPARPETPSPAIPSHSSNTALERPLAVQLARKRTSSEARQKQKHPKKVKQAFNPLI
modifications: Epstein-Barr Virus
With B2 the “effect on the low-salt activity of BALF5” value [2] was “did not appear to significantly decrease”.

B3: C95E: BMRF1 comprising a C95E mutation, a monomeric form of BMRF1 (protein, UniProt P03191 1-404, looked up, variant C95E)
DNA polymerase processivity …: B2 chain with C95E
For B3, the EBVpol processivity [3] is listed as “can still efficiently catalyze EBVpol processivity”.

B4: C550: BALF5 with deletion of the carboxyl terminal 465 residues (protein)
chain: MASASLTMSGGLFYNPFLRPNKGLLKKPDKEYLRLIPKCFQTPGAAGVVDVRGPQPPLCFYQDSLTVVGGDEDGKGMWWRQRAQEGTARPEADTHGSPLDFHVYDILETVYTHEKCAVIPSDKQGYVVPCGIVIKLLGRRKADGASVCVNVFGQQAYFYASAPQGLDVEFAVLSALKASTFDRRTPCRVSVEKVTRRSIMGYGNHAGDYHKITLSHPNSVCHVATWLQDKHGCRIFEANVDATRRFVLDNDFVTFGWYSCRRAIPRLQHRDSYAELEYDCEVGDLSVRREDSSWPSYQALAFDIECLGEEGFPTATNEADLILQISCVLWSTGEEAGRYRRILLTLGTCEDIEGVEVYEFPSELDMLYAFFQLIRDLSVEIVTGYNVANFDWPYILDRARHIYSINPASLGKIRAGGVCEVRRPHDAGKGFLRANTKVRITGLIPIDMYAVCRDKLSLSDYKLDTVARHLLGAKKEDVHYKEIPRLFAAGPEGRRRLGMYCVQDSALVMDLLNHFVIHVEVAEIAKIAHIPCRRVLDDGQQIRVFSCLLAAAQKENF
In the case of B4, the “binding to GST-BMRF1(1-303)” value (GST-BMRF1(1-303)) is reported as “did not bind” and the “DNA polymerase activity in vitro” value [1] is reported as “catalytically inactive”.

B5: N160: BALF5 with deletion of the amino-terminal 160 residues (protein)
chain: VEFAVLSALKASTFDRRTPCRVSVEKVTRRSIMGYGNHAGDYHKITLSHPNSVCHVATWLQDKHGCRIFEANVDATRRFVLDNDFVTFGWYSCRRAIPRLQHRDSYAELEYDCEVGDLSVRREDSSWPSYQALAFDIECLGEEGFPTATNEADLILQISCVLWSTGEEAGRYRRILLTLGTCEDIEGVEVYEFPSELDMLYAFFQLIRDLSVEIVTGYNVANFDWPYILDRARHIYSINPASLGKIRAGGVCEVRRPHDAGKGFLRANTKVRITGLIPIDMYAVCRDKLSLSDYKLDTVARHLLGAKKEDVHYKEIPRLFAAGPEGRRRLGMYCVQDSALVMDLLNHFVIHVEVAEIAKIAHIPCRRVLDDGQQIRVFSCLLAAAQKENFILPMPSASDRDGYQGATVIQPLSGFYNSPVLVVDFASLYPSIIQAHNLCYSTMITPGEEHRLAGLRPGEDYESFRLTGGVYHFVKKHVHESFLASLLTSWLAKRKAIKKLLAACEDPRQRTILDKQQLAIKCTCNAVYGFTGVANGLFPCLSIAETVTLQGRTMLERAKAFVEALSPANLQALAPSPDAWAPLNPEGQLRVIYGDTDSLFIECRGFSESETLRFADALAAHTTRSLFVAPISLEAEKTFSCLMLITKKRYVGVLTDGKTLMKGVELVRKTACKFVQTRCRRVLDLVLADARVKEAASLLSHRPFQESFTQGLPVGFLPVIDILNQAYTDLREGRVPMGELCFSTELSRKLSAYKSTQMPHLAVYQKFVERNEELPQIHDRIQYVFVEPKGGVKGARKTEMAEDPAYAERHGVPVAVDHYFDKLLQGAANILQCLFDNNSGAALSVLQNFTARPPF
With B5 the “binding to GST-BMRF1(1-303)” value (GST-BMRF1(1-303)) was “did not prevent binding” and the “DNA polymerase activity in vitro” value [1] was “catalytically inactive”.

B6: A107-550: BALF5 with internal deletion of residues 107-550 (protein)
chain: MASASLTMSGGLFYNPFLRPNKGLLKKPDKEYLRLIPKCFQTPGAAGVVDVRGPQPPLCFYQDSLTVVGGDEDGKGMWWRQRAQEGTARPEADTHGSPLDFHVYDILETVYTHILPMPSASDRDGYQGATVIQPLSGFYNSPVLVVDFASLYPSIIQAHNLCYSTMITPGEEHRLAGLRPGEDYESFRLTGGVYHFVKKHVHESFLASLLTSWLAKRKAIKKLLAACEDPRQRTILDKQQLAIKCTCNAVYGFTGVANGLFPCLSIAETVTLQGRTMLERAKAFVEALSPANLQALAPSPDAWAPLNPEGQLRVIYGDTDSLFIECRGFSESETLRFADALAAHTTRSLFVAPISLEAEKTFSCLMLITKKRYVGVLTDGKTLMKGVELVRKTACKFVQTRCRRVLDLVLADARVKEAASLLSHRPFQESFTQGLPVGFLPVIDILNQAYTDLREGRVPMGELCFSTELSRKLSAYKSTQMPHLAVYQKFVERNEELPQIHDRIQYVFVEPKGGVKGARKTEMAEDPAYAERHGVPVAVDHYFDKLLQGAANILQCLFDNNSGAALSVLQNFTARPPF
In the case of B6, the “binding to GST-BMRF1(1-303)” value (GST-BMRF1(1-303)) is reported as “did not prevent binding” and the “DNA polymerase activity in vitro” value [1] is reported as “catalytically inactive”.
